The text below walks through data of the supplement of paper PMC11780869.

The data set concerns Bacillus subtilis. Kind of data set: cleaved RNA product abundance (RNA/gDNA barcode ratio) relative to median wild-type variant (ratio to wild type); higher = more accumulation of the downstream cleavage product. Particulars: experiment (reporter, strain, medium): exp 8a: truncated aprE reporter, strain BJT201 with 2% xylose (RNase J1 expressed); cleavage site: glnRA (positions -5 to +31 mutated). Summed up: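 Cleaved product abundance was measured with barcoded reporter mRNAs (truncated aprE or tetM) carrying mutagenized RNase Y cleavage-site windows in the B. subtilis chromosome. Cultures in LB at 37°C grew from OD600 0.0003 to 0.3. Gel-selected cleaved RNA was reverse transcribed and barcode-sequenced with genomic DNA barcodes, and the RNA:gDNA barcode ratio per construct was scaled to the median construct bearing the unmutated site.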
Regarding “CGACATGTCCCGCTTCTTTCATTAATCCGTTAGCAACTGTTTTGCTATATACATTTAGGTTTTAAGAGGAGGAAT”, the “cleaved RNA product abundance” value was found to be 0.86. For “CGACATGTCCCGCTTCTTTCATTAATCCGTTAGCAACTGTTTTGCTATATACATTTATCGTTTAAGAGGAGGAAT”, the “cleaved RNA product abundance” value came out at 0.92. On to “CGACATGTCCCGCTTCTTTCATTAATCCGTTAGCAACTGTTTTGCTATATACATTTATCTTTTAAGAGGAGGAAT”, for which the “cleaved RNA product abundance” value came out at 1.27. For “CGACATGTCCCGCTTCTTTCATTAATCCGTTAGCAACTGTTTTGCTATATACATTTATGTTTTAAGAGGAGGAAT” the value was 0.888. As to “CGACATGTCCCGCTTCTTTCATTAATCCGTTAGCAACTGTTTTGCTATATACATTTATTTTTTAAGAGGAGGAAT”, the “cleaved RNA product abundance” value turned out to be 2.39. As for “CGACATGTCCCGCTTCTTTCATTAATCCGTTAGCAACTGTTTTGCTATATACATTTCCCATTTAAGAGGAGGAAT”, the “cleaved RNA product abundance” value was determined as 1.11.

Take “CGACATGTCCCGCTTCTTTCATTAATCCGTTAGCAACTGTTTTGCTATATACATTTCCCTTTTAAGAGGAGGAAT”: the “cleaved RNA product abundance” value worked out at 0.531. For the sequence “CGACATGTCCCGCTTCTTTCATTAATCCGTTAGCAACTGTTTTGCTATATACATTTCCTTTTTAAGAGGAGGAAT”, the “cleaved RNA product abundance” value amounted to 0.345. For “CGACATGTCCCGCTTCTTTCATTAATCCGTTAGCAACTGTTTTGCTATATACATTTGCCTTTTAAGAGGAGGAAT” the value was 0.413. “CGACATGTCCCGCTTCTTTCATTAATCCGTTAGCAACTGTTTTGCTATATACATTTTCCTTTTAAGAGGAGGAAT”: the “cleaved RNA product abundance” value worked out at 0.416. For the sequence “CGACATGTCCCGCTTCTTTCATTAATCCGTTAGCAACTGTTTTGCTATATACATTTTCTTTTTAAGAGGAGGAAT”, the “cleaved RNA product abundance” value is 0.842. Turning to “CGACATGTCCCGCTTCTTTCATTAATCCGTTAGCAACTGTTTTGCTATATACATTTTTCTTTTAAGAGGAGGAAT”, the “cleaved RNA product abundance” value stood at 0.479. In the case of “CGACATGTCCCGCTTCTTTCATTAATCCGTTAGCAACTGTTTTGCTATATACCTTAACCTTTTAAGAGGAGGAAT” it was 0.281; in that of “CGACATGTCCCGCTTCTTTCATTAATCCGTTAGCAACTGTTTTGCTATATACCTTCACCTTTTAAGAGGAGGAAT”, 0.276; in that of “CGACATGTCCCGCTTCTTTCATTAATCCGTTAGCAACTGTTTTGCTATATACCTTTACCTTTTAAGAGGAGGAAT”, 0.283. With “CGACATGTCCCGCTTCTTTCATTAATCCGTTAGCAACTGTTTTGCTATATACGTTTACCTTTTAAGAGGAGGAAT”, the “cleaved RNA product abundance” value was 0.361. For “CGACATGTCCCGCTTCTTTCATTAATCCGTTAGCAACTGTTTTGCTATATACTTATACCTTTTAAGAGGAGGAAT” the value was 0.926. For “CGACATGTCCCGCTTCTTTCATTAATCCGTTAGCAACTGTTTTGCTATATACTTTTACCATTTAAGAGGAGGAAT” the value was 0.769; for “CGACATGTCCCGCTTCTTTCATTAATCCGTTAGCAACTGTTTTGCTATATACTTTTACCTTTTAAGAGGAGGAAT”, 0.641.

Consider “CGACATGTCCCGCTTCTTTCATTAATCCGTTAGCAACTGTTTTGCTATATAGAATTACCTTTTAAGAGGAGGAAT”, for which the “cleaved RNA product abundance” value worked out at 1.14. In the case of “CGACATGTCCCGCTTCTTTCATTAATCCGTTAGCAACTGTTTTGCTATATAGATTTACCCTTTAAGAGGAGGAAT” it was 0.684; in that of “CGACATGTCCCGCTTCTTTCATTAATCCGTTAGCAACTGTTTTGCTATATAGATTTACCTTTTAAGAGGAGGAAT”, 1.11; in that of “CGACATGTCCCGCTTCTTTCATTAATCCGTTAGCAACTGTTTTGCTATATATAATTACCTTTTAAGAGGAGGAAT”, 0.919. For “CGACATGTCCCGCTTCTTTCATTAATCCGTTAGCAACTGTTTTGCTATATATATATACCTTTTAAGAGGAGGAAT”, the “cleaved RNA product abundance” value came to 1.12. For “CGACATGTCCCGCTTCTTTCATTAATCCGTTAGCAACTGTTTTGCTATATATATTTACCCTTTAAGAGGAGGAAT” the value was 0.959; for “CGACATGTCCCGCTTCTTTCATTAATCCGTTAGCAACTGTTTTGCTATATATATTTACCTTTTAAGAGGAGGAAT”, 1.03. For “CGACATGTCCCGCTTCTTTCATTAATCCGTTAGCAACTGTTTTGCTATATATATTTACTTTTTAAGAGGAGGAAT”, the “cleaved RNA product abundance” value amounted to 1.89. Consider “CGACATGTCCCGCTTCTTTCATTAATCCGTTAGCAACTGTTTTGCTATATATATTTATCTTTTAAGAGGAGGAAT”, for which the “cleaved RNA product abundance” value came to 1.3. As for “CGACATGTCCCGCTTCTTTCATTAATCCGTTAGCAACTGTTTTGCTATATCCATTGACCTTTTAAGAGGAGGAAT”, the “cleaved RNA product abundance” value was 0.461. For “CGACATGTCCCGCTTCTTTCATTAATCCGTTAGCAACTGTTTTGCTATATCCATTTACCTTTTAAGAGGAGGAAT”, the “cleaved RNA product abundance” value stood at 0.167. On to “CGACATGTCCCGCTTCTTTCATTAATCCGTTAGCAACTGTTTTGCTATATGCAATTACCTTTTAAGAGGAGGAAT”, for which the “cleaved RNA product abundance” value amounted to 0.289.

Turning to “CGACATGTCCCGCTTCTTTCATTAATCCGTTAGCAACTGTTTTGCTATATGCATTTAACTTTTAAGAGGAGGAAT”, the “cleaved RNA product abundance” value is 0.452.

For the sequence “CGACATGTCCCGCTTCTTTCATTAATCCGTTAGCAACTGTTTTGCTATATGCATTTACCTTTTAAGAGGAGGAAT”, the “cleaved RNA product abundance” value is 0.239. As to “CGACATGTCCCGCTTCTTTCATTAATCCGTTAGCAACTGTTTTGCTATATGTATTTACCTTTTAAGAGGAGGAAT”, the “cleaved RNA product abundance” value is 0.45. As for “CGACATGTCCCGCTTCTTTCATTAATCCGTTAGCAACTGTTTTGCTATATTAATTTACCTTTTAAGAGGAGGAAT”, the “cleaved RNA product abundance” value is 0.236.

Regarding “CGACATGTCCCGCTTCTTTCATTAATCCGTTAGCAACTGTTTTGCTATATTACATTTACCTTTTAAGAGGAGGAA”, the “cleaved RNA product abundance” value stood at 0.443. Turning to “CGACATGTCCCGCTTCTTTCATTAATCCGTTAGCAACTGTTTTGCTATATTCATATACCTTTTAAGAGGAGGAAT”, the “cleaved RNA product abundance” value was found to be 0.449. “CGACATGTCCCGCTTCTTTCATTAATCCGTTAGCAACTGTTTTGCTATATTCATTTACCTTTTAAGAGGAGGAAT”: the “cleaved RNA product abundance” value stood at 0.233. Regarding “CGACATGTCCCGCTTCTTTCATTAATCCGTTAGCAACTGTTTTGCTATATTGATTTACCTTTTAAGAGGAGGAAT”, the “cleaved RNA product abundance” value is 0.263. In the case of “CGACATGTCCCGCTTCTTTCATTAATCCGTTAGCAACTGTTTTGCTATATTTATTTACCTTTTAAGAGGAGGAAT”, the “cleaved RNA product abundance” value came out at 0.495. “CGACATGTCCCGCTTCTTTCATTAATCCGTTAGCAACTGTTTTGCTATCTAAATTTACCTTTTAAGAGGAGGAAT”: the “cleaved RNA product abundance” value amounted to 0.123. Turning to “CGACATGTCCCGCTTCTTTCATTAATCCGTTAGCAACTGTTTTGCTATCTACAGTTACCTTTTAAGAGGAGGAAT”, the “cleaved RNA product abundance” value stood at 0.0519. For “CGACATGTCCCGCTTCTTTCATTAATCCGTTAGCAACTGTTTTGCTATCTACATTTACCTTTTAAGAGGAGGAAT”, the “cleaved RNA product abundance” value was 0.098. Take “CGACATGTCCCGCTTCTTTCATTAATCCGTTAGCAACTGTTTTGCTATGTACATTTACCTTTTAAGAGGAGGAAT”: the “cleaved RNA product abundance” value was determined as 0.215. For “CGACATGTCCCGCTTCTTTCATTAATCCGTTAGCAACTGTTTTGCTATTTAAATTTACCTTTTAAGAGGAGGAAT” the value was 0.144; for “CGACATGTCCCGCTTCTTTCATTAATCCGTTAGCAACTGTTTTGCTATTTACACTTACCTTTTAAGAGGAGGAAT”, 0.12; for “CGACATGTCCCGCTTCTTTCATTAATCCGTTAGCAACTGTTTTGCTATTTACATATACCTTTTAAGAGGAGGAAT”, 0.317. For “CGACATGTCCCGCTTCTTTCATTAATCCGTTAGCAACTGTTTTGCTATTTACATCTACCTTTTAAGAGGAGGAAT”, the “cleaved RNA product abundance” value was determined as 0.276.

For “CGACATGTCCCGCTTCTTTCATTAATCCGTTAGCAACTGTTTTGCTATTTACATGTACCTTTTAAGAGGAGGAAT”, the “cleaved RNA product abundance” value was 0.0435. In the case of “CGACATGTCCCGCTTCTTTCATTAATCCGTTAGCAACTGTTTTGCTATTTACATTTAACTTTTAAGAGGAGGAAT”, the “cleaved RNA product abundance” value is 0.208. In the case of “CGACATGTCCCGCTTCTTTCATTAATCCGTTAGCAACTGTTTTGCTATTTACATTTACCTTTTAAGAGGAGGAAT”, the “cleaved RNA product abundance” value was 0.16. As to “CGACATGTCCCGCTTCTTTCATTAATCCGTTAGCAACTGTTTTGCTCTATAAATTTACCTTTTAAGAGGAGGAAT”, the “cleaved RNA product abundance” value came to 0.384. As to “CGACATGTCCCGCTTCTTTCATTAATCCGTTAGCAACTGTTTTGCTCTATACATATACCTTTTAAGAGGAGGAAT”, the “cleaved RNA product abundance” value came to 0.176.

Regarding “CGACATGTCCCGCTTCTTTCATTAATCCGTTAGCAACTGTTTTGCTCTATACATTTACCTTTTAAGAGGAGGAAT”, the “cleaved RNA product abundance” value is 0.265. As to “CGACATGTCCCGCTTCTTTCATTAATCCGTTAGCAACTGTTTTGCTGTATAAATTTACCTTTTAAGAGGAGGAAT”, the “cleaved RNA product abundance” value was 0.199. For “CGACATGTCCCGCTTCTTTCATTAATCCGTTAGCAACTGTTTTGCTGTATACATTTACCTTTTAAGAGGAGGAAT”, the “cleaved RNA product abundance” value was found to be 0.219. “CGACATGTCCCGCTTCTTTCATTAATCCGTTAGCAACTGTTTTGCTTTATAAATTTACCTTTTAAGAGGAGGAAT”: the “cleaved RNA product abundance” value is 0.385.

For “CGACATGTCCCGCTTCTTTCATTAATCCGTTAGCAACTGTTTTGCTTTATACATATACCTTTTAAGAGGAGGAAT”, the “cleaved RNA product abundance” value amounted to 0.406. As to “CGACATGTCCCGCTTCTTTCATTAATCCGTTAGCAACTGTTTTGCTTTATACATTTAACTTTTAAGAGGAGGAAT”, the “cleaved RNA product abundance” value turned out to be 0.346. As for “CGACATGTCCCGCTTCTTTCATTAATCCGTTAGCAACTGTTTTGCTTTATACATTTACCCTTTAAGAGGAGGAAT”, the “cleaved RNA product abundance” value was found to be 0.206. Turning to “CGACATGTCCCGCTTCTTTCATTAATCCGTTAGCAACTGTTTTGCTTTATACATTTACCTTTTAAGAGGAGGAAT”, the “cleaved RNA product abundance” value is 0.338.
